30 sequences from the nanobody polyreactivity screen of Harvey et al. (2022) can be followed below.

This series can be described thus: yeast display, Sf9 membrane polyspecificity reagent, FACS + sequencing; frameworks hold sequencing errors. In outline: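 In a synthetic yeast display library (Saccharomyces cerevisiae BJ5465), nanobody expression was induced with galactose for 36–48 hours. FACS gates were set low and high (top ~1%) using anti-HA fluorescence for expression and streptavidin fluorescence for binding of the Sf9 membrane reagent. Each polyreactivity label is drawn from the gate of origin.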
Take “QVQLVESGGGLVQAGGSLRLSCAASGSIFQYNAMGWYRQAPGKRELVAAINRSGGSTYYADSVKGRFTISRDYAKNTVYLQMNSLKPEDTAVYYCAAVRYDRARGSPYPDRVGVYSWGQGTQVTVSS”: the “polyreactivity (PSR sort gate)” value is listed as “high polyreactivity”.

“QVQLVESGGGLVQAGGSLRLSCAASGSIFQYNDMGWYRQQPGKEREFVADISSSGGSTYYADSVKGRFTISRDTAKNTVYLQMNSLKPEDTEVYYCNADPGYDFYRDEYWGQGTQVTVSS”: the “polyreactivity (PSR sort gate)” value is recorded as “low polyreactivity”. With “QVQLVESGGGLVQAGGSLRLSCAASGSIFQYTMGWYRQAPVKEMELVAAITRSGSSTYYADSVKGRFTISRDNAKNTVYLQMNSLKPEDTAVYYCAHNIRRVLGYGSWGQGTQVTVSS” the entry was “high polyreactivity”; with “QVQLVESGGGLVQAGGSLRLSCAASGSIFQYYAMGWYRQAPGKERELVAAISSGDTTNYADSVKGRFTISRDNAKNTVYLQMNSLKPEDTAVYYCNAEGGWYDWDDYWGQGTQVTVSS”, “low polyreactivity”; with “QVQLVESGGGLVQAGGSLRLSCAASGSIFRANAMGWYRQAPGKERELVAAISRRGGNTYYADSVKGRFTISRDNAKNTVYLQMNSLKPEDTAVYYCAADRSEYDYWGQGTQVTVSS”, “high polyreactivity”. With “QVQLVESGGGLVQAGGSLRLSCAASGSIFRAYAMGWDRQAPGKERELVATISGSGGSRSYADSVKGRFTISRDNAKNTVDLQMNSLKPEDTAVYYCARDRYYKYTSYDYWGQGTQVTVSA” the entry was “low polyreactivity”. Turning to “QVQLVESGGGLVQAGGSLRLSCAASGSIFRAYAMGWYRQAPGKEMELVAAISSGVSTNYADSVKGRFTISRDNAKNTVYLQMNSLKPEDTAVYYCNTDKYSESYRSYEYWGQGTQVTVSS”, the “polyreactivity (PSR sort gate)” value is given as “low polyreactivity”. The result for “QVQLVESGGGLVQAGGSLRLSCAASGSIFRAYAMGWYRQAPGKERELVAAISWGGGSTSYADSVKGRFTISRDNAKNTVYLQMNSLNPEDTAVYYCAARFIWPARYYSWGQGTQVTVSS” reads “high polyreactivity”.

As to “QVQLVESGGGLVQAGGSLRLSCAASGSIFRAYAMGWYRQAPGKERELVAAITGNGARTYYADSVKGRFTISRDNAKNTVYLQMNSLKPEDTAVYYCAKRGNRQHRWWYDYWGQGTQVTVSS”, the “polyreactivity (PSR sort gate)” value is “low polyreactivity”.

Take “QVQLVESGGGLVQAGGSLRLSCAASGSIFRDYVMGWYRQAPGKERELVAAISGNDGSTYYADSVKGRFTISRDNAKNTVYLQMNSLKPEDTAVYYCNADEASTVPQFYSYLDFDYWGQGTQVTVSS”: the “polyreactivity (PSR sort gate)” value is given as “low polyreactivity”. With “QVQLVESGGGLVQAGGSLRLSCAASGSIFRFYAMGWYRQAPWKERELVAGITWSGASTYYADSVKGRFTISRDNAKNTVYLQMNSLKPEDNAVYYCAAKSLIVRYDSWGQGTQVTVSS” the entry was “high polyreactivity”; with “QVQLVESGGGLVQAGGSLRLSCAASGSIFRGNALGWYRQAPGKERELVAAITGSGGNTYYADSVKGRFTISRDNAKNTVYLQMNSLKPEDTAVYYCNAQRYRVVVYNSHGWQTRNYWGQGTQVTVSS”, “low polyreactivity”; with “QVQLVESGGGLVQAGGSLRLSCAASGSIFRGNAMGWYRQAPGKERELVAAITYNDGGTYYADSVKGRFTISRDNAKNTVYLQMNSLKPEDTAVYYCAAVGTGNKSILYDYWGQGTQVTVSS”, “low polyreactivity”. With “QVQLVESGGGLVQAGGSLRLSCAASGSIFRGYGMGWYRQAPGKERELVAANNYSGGSTYYADSVKGRFTISRDNAKNTVYLQMNSLKPEDTAVYYCNKVYYRQRGEYYYWGQGTQVTVSS” the entry was “high polyreactivity”.

For “QVQLVESGGGLVQAGGSLRLSCAASGSIFRGYTMGWYRQAPGKERELFAAISTRGGSTYYADSVKGRFTISRDNAKNTVYLQMNSLKPEDTAVYYCNARSRGRASGYDYWGQGTQVTVSS”, the “polyreactivity (PSR sort gate)” value was “high polyreactivity”. On to “QVQLVESGGGLVQAGGSLRLSCAASGSIFRGYTMGWYRQATGKERELVATISWSGGSTYYADSVKGRFTISRDNAKNTVYLQMNCLKPEDTAVYYCAAVWYLGIPYDYWGQGTQVTVSS”, for which the “polyreactivity (PSR sort gate)” value is “high polyreactivity”. “QVQLVESGGGLVQAGGSLRLSCAASGSIFRGYVMGWYRQAPGKERELVAAIRWRGGDTRYADSVKGRFTISRDNAKNTVYLQMNSLKPEDTAVYYCAAQYRKTQYQKKYDYWGQGTQVTVSS”: the “polyreactivity (PSR sort gate)” value is given as “high polyreactivity”. With “QVQLVESGGGLVQAGGSLRLSCAASGSIFRKNAMGWYRQAPGKERELVAAITCTGRTTYADSVKGRFTISRDNAKNTVYLQMNSLKPEDTAVYYCAADVNYYQHRLYYWGQGTQVTVSS” the entry was “low polyreactivity”.

Regarding “QVQLVESGGGLVQAGGSLRLSCAASGSIFRKNAMGWYRQAPGKERELVAAITYRTGSTYYADSVKGRFTISRDNAKNTVYLQMNSLKPEDTAVYYCAAQTWGSGYGHIGRRRHDYWGQGTQVTVSS”, the “polyreactivity (PSR sort gate)” value is “high polyreactivity”.

In the case of “QVQLVESGGGLVQAGGSLRLSCAASGSIFRKYAMGWYRQAPGKEREFVAAISRSGGGTYYADSVKGRFTISRDNAKNTVYLQMNSLKPEDTAVYYCAAEFRTGLQGEHYYWGQGTQVTVSS”, the “polyreactivity (PSR sort gate)” value was “low polyreactivity”.

In the case of “QVQLVESGGGLVQAGGSLRLSCAASGSIFRLNALGWYRQAPGKERELVAAITWSDSSTYYADSVKGRFTISRDNAKNTVYLQMNSLKQEDTAVYYCAADPQSYKYDYWGQGTQVTVSS”, the “polyreactivity (PSR sort gate)” value is recorded as “low polyreactivity”. Consider “QVQLVESGGGLVQAGGSLRLSCAASGSIFRLNAMGWYRQAPGKERELVAAIDGSDGSTYYADSVKGRFTISRDNAKNTVYLQMNSLKPEDTAVYYCAAERGYPTDYYSGSDDYWGQGTQVTVSS”, for which the “polyreactivity (PSR sort gate)” value is recorded as “low polyreactivity”. On to “QVQLVESGGGLVQAGGSLRLSCAASGSIFRLNAMGWYRQAPGKERELVAAITSSGGNTYYADSVKGRFTISRDNAKNTVYLQMNSLKPEDTAVYYCATRAYARWYGYWGQGTQVTVSS”, for which the “polyreactivity (PSR sort gate)” value is “low polyreactivity”. The result for “QVQLVESGGGLVQAGGSLRLSCAASGSIFRNNAMGWYIQAPGKERELVASITRRGGSTYYADSVKGRFTISRDNAKNTVYLQMNSLKPEYTAGSYCAATTQHRYTLNYWGQGTQVTVSS” reads “high polyreactivity”; that for “QVQLVESGGGLVQAGGSLRLSCAASGSIFRNYAMGWYRQAPGKEREFVAAISGGGGSTYYADSVKGRFTISRDNAKNTVYLQMNSLKPEDTAVYYCARVRYYGALKLYAYDHWGQGTQVTVSS”, “high polyreactivity”. The result for “QVQLVESGGGLVQAGGSLRLSCAASGSIFRPNDMGWYRQAPGKERELVAAISTGGSTSYADSVKGRFTISRDNAKNTVYLQMNSLKPEDTAVYYCAAVYYLTDWYGVWYSFDYWGQGTQVTVSS” reads “low polyreactivity”. Consider “QVQLVESGGGLVQAGGSLRLSCAASGSIFRPYAMGRYRQAPGKERELVAAISWRSGRTYYADSVKGRFTISRDNAKNTVYLQMNSLKPEDTAVYYCAADLASYAYRYDYWGQGTQVTVSS”, for which the “polyreactivity (PSR sort gate)” value is listed as “high polyreactivity”. Turning to “QVQLVESGGGLVQAGGSLRLSCAASGSIFRPYAMGWYRQAPGKERELVAAITWSGGRTYYADSVKGRFTISRDNAKNTVYLQMNSLKPEDTAVYYCAADDSEGFDYWGQGTQVTVSS”, the “polyreactivity (PSR sort gate)” value is recorded as “high polyreactivity”.

For the sequence “QVQLVESGGGLVQAGGSLRLSCAASGSIFRQYAMGWYRQAPGKERELVAAITYSGGNTYYADSVKGRFTISRDNAKNTVYVQMNSLKPEDTAVYYCAADYGSRSWEYNYWGQGTQVTVSS”, the “polyreactivity (PSR sort gate)” value was “low polyreactivity”. With “QVQLVESGGGLVQAGGSLRLSCAASGSIFRRNAMGWYRQAPGKERELVAAISSNGGSTYYADSVKGRFTISRDNAKNTVYLQMNSLKQEDTAVYYFNALGRVRYSPRYGYDYWGLGTQVTVSS” the entry was “high polyreactivity”.
